# Assay results reported in patent US6013288A, “Process for manufacturing beer” (Suntory Limited, priority 1995, dated 2000).
# B1: nucleoside phosphorylase derived from calf spleen: Nucleoside phosphorylase derived from calf spleen (Boehringer), EC 2.4.2.1 (protein, UniProt P55859 1-289, looked up)
# Purine nucleoside …: MANGYTYEDYQDTAKWLLSHTEQRPQVAVICGSGLGGLVNKLTQAQTFDYSEIPNFPESTVPGHAGRLVFGILNGRACVMMQGRFHMYEGYPFWKVTFPVRVFRLLGVETLVVTNAAGGLNPNFEVGDIMLIRDHINLPGFSGENPLRGPNEERFGVRFPAMSDAYDRDMRQKAHSTWKQMGEQRELQEGTYVMLGGPNFETVAECRLLRNLGADAVGMSTVPEVIVARHCGLRVFGFSLITNKVIMDYESQGKANHEEVLEAGKQAAQKLEQFVSLLMASIPVSGHTG
# Experiment: Decomposition of purine nucleosides in wort by nucleoside phosphorylase
# Type: biochemical
# Details: 7 units/ml, 3 hours at 30° C., wort extract concentration 12.5%
# Description: Nucleoside phosphorylase derived from calf spleen (Boehringer) was added to wort having an extract concentration of 12.5% to a concentration of 7 units/ml, and allowed to react for 3 hours at 30° C. The amount of purine compounds in the wort to which enzyme was added and a wort held for 3 hours at 30° C. without adding enzyme as the control were measured using the method described in Experiment 1.
molecule,measurement,value
B1,decomposition ratio of each purine nucleoside,roughly 60%
